In US20250304644A1, “PEPTIDES TRIPLE AGONISTS OF GIP, GLP-1 AND GLP-2” (BAINAN BIOTECH APS, priority 2021, published 2025):
One block for each binder: values may come before it. Where no end group is shown, it is not given here. [ ]: non-standard residue; d: D form. The star is where a group is joined. Decanoyl = CCCCCCCCCC(=O)*; Aib = CC(C)(N)C(=O)O

How the values were obtained:
Experiment in all cases: cell-based or functional assay
[1] = molecular target: T1, human GIPR (glucose-dependent insulinotropic polypeptide receptor) (human, UniProt P48546 22-466)
T1 sequence (looked up): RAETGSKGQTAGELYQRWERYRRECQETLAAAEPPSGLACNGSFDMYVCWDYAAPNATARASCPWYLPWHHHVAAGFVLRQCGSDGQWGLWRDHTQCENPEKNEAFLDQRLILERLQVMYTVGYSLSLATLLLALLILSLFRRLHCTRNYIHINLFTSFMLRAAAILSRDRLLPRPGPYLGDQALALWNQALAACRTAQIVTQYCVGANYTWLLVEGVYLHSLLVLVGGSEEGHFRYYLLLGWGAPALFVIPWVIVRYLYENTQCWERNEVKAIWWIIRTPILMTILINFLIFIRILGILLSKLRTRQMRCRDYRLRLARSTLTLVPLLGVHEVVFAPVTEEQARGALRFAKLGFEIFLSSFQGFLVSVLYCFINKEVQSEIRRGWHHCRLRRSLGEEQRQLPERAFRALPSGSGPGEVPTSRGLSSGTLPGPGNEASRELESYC

[2] = molecular target: human GLP-1R (glucagon-like peptide-1 receptor) (human, UniProt P43220 24-463)
[3] = molecular target: T2, human GLP-2R (glucagon-like peptide-2 receptor) (human, UniProt O95838 1-553)
T2 sequence (looked up): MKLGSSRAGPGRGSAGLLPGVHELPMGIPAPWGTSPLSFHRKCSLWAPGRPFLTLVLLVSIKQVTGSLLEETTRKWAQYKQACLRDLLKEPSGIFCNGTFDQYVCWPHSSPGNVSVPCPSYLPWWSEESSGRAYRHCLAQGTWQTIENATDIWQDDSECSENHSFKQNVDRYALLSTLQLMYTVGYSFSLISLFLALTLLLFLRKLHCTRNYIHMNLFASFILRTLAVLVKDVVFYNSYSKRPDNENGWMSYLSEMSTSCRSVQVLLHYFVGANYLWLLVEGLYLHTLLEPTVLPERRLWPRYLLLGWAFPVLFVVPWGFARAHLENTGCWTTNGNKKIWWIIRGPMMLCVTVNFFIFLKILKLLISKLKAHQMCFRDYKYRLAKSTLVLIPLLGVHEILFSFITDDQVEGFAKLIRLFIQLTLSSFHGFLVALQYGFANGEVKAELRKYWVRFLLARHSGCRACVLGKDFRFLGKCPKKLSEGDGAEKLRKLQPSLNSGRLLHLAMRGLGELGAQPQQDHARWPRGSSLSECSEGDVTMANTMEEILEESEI

- EC50 (nM) GIPR [1]: 7.94 nM
- Efficacy GIPR [1]: 117
- pEC50 GIPR [1]: 8.1
- EC50 (nM) GLP-1R [2]: 25.1 nM
- Efficacy GLP-1R [2]: 85
- logEC50 GLP-1R [2]: 7.6
- EC50 (nM) GLP-2R [3]: 25.1 nM
- Efficacy GLP-2R [3]: 86
- logEC50 GLP-2R [3]: 7.6
B1: Compound 13 (peptide)
peptide: H[Aib]DGTFISDYSTELDNLAARDFINWLIQTKITK(Decanoyl)-NH2
modifications: N-terminus assumed
SMILES: CCCCCCCCCC(=O)NCCCC[C@H](NC(=O)[C@@H](NC(=O)[C@@H](NC(=O)[C@H](CCCCN)NC(=O)[C@@H](NC(=O)[C@H](CCC(N)=O)NC(=O)[C@@H](NC(=O)[C@H](CC(C)C)NC(=O)[C@H](Cc1c[nH]c2ccccc12)NC(=O)[C@H](CC(N)=O)NC(=O)[C@@H](NC(=O)[C@H](Cc1ccccc1)NC(=O)[C@H](CC(=O)O)NC(=O)[C@H](CCCNC(=N)N)NC(=O)[C@H](C)NC(=O)[C@H](C)NC(=O)[C@H](CC(C)C)NC(=O)[C@H](CC(N)=O)NC(=O)[C@H](CC(=O)O)NC(=O)[C@H](CC(C)C)NC(=O)[C@H](CCC(=O)O)NC(=O)[C@@H](NC(=O)[C@H](CO)NC(=O)[C@H](Cc1ccc(O)cc1)NC(=O)[C@H](CC(=O)O)NC(=O)[C@H](CO)NC(=O)[C@@H](NC(=O)[C@H](Cc1ccccc1)NC(=O)[C@@H](NC(=O)CNC(=O)[C@H](CC(=O)O)NC(=O)C(C)(C)NC(=O)[C@@H](N)Cc1c[nH]cn1)[C@@H](C)O)[C@@H](C)CC)[C@@H](C)O)[C@@H](C)CC)[C@@H](C)CC)[C@@H](C)O)[C@@H](C)CC)[C@@H](C)O)C(N)=O

- Efficacy GIPR [1]: 97
- Efficacy GLP-1R [2]: 107
- Efficacy GLP-2R [3]: 92
B2: Compound 17 (peptide)
peptide: HXDGTFISDYSTILDNLAARDFINWLIQTKITK
modifications: Aib at position 2; K33 acylated with C10 via γGlu linker, K(γGlu-C10); C-terminal amide (-NH2)

- EC50 (nM) GIPR [1]: 1 nM
- Efficacy GIPR [1]: 99
- pEC50 GIPR [1]: 9
- EC50 (nM) GLP-1R [2]: 56.2 nM
- Efficacy GLP-1R [2]: 59
- logEC50 GLP-1R [2]: 7.3
- EC50 (nM) GLP-2R [3]: 8.9 nM
- Efficacy GLP-2R [3]: 93
- logEC50 GLP-2R [3]: 8.1
B3: Compound 16 (peptide)
peptide: Y[Aib]DGTFISDYSTILDNLAARDFINWLIQTKITK(Decanoyl)-NH2
modifications: N-terminus assumed
SMILES: CCCCCCCCCC(=O)NCCCC[C@H](NC(=O)[C@@H](NC(=O)[C@@H](NC(=O)[C@H](CCCCN)NC(=O)[C@@H](NC(=O)[C@H](CCC(N)=O)NC(=O)[C@@H](NC(=O)[C@H](CC(C)C)NC(=O)[C@H](Cc1c[nH]c2ccccc12)NC(=O)[C@H](CC(N)=O)NC(=O)[C@@H](NC(=O)[C@H](Cc1ccccc1)NC(=O)[C@H](CC(=O)O)NC(=O)[C@H](CCCNC(=N)N)NC(=O)[C@H](C)NC(=O)[C@H](C)NC(=O)[C@H](CC(C)C)NC(=O)[C@H](CC(N)=O)NC(=O)[C@H](CC(=O)O)NC(=O)[C@H](CC(C)C)NC(=O)[C@@H](NC(=O)[C@@H](NC(=O)[C@H](CO)NC(=O)[C@H](Cc1ccc(O)cc1)NC(=O)[C@H](CC(=O)O)NC(=O)[C@H](CO)NC(=O)[C@@H](NC(=O)[C@H](Cc1ccccc1)NC(=O)[C@@H](NC(=O)CNC(=O)[C@H](CC(=O)O)NC(=O)C(C)(C)NC(=O)[C@@H](N)Cc1ccc(O)cc1)[C@@H](C)O)[C@@H](C)CC)[C@@H](C)O)[C@@H](C)CC)[C@@H](C)CC)[C@@H](C)CC)[C@@H](C)O)[C@@H](C)CC)[C@@H](C)O)C(N)=O
